Reference: PMC10938136

Biological target: Komagataella phaffii Ero1 (Komagataella phaffii) (UniProt F2QNN1)
UniProt F2QNN1, sequence (F2QNN1 entry or part of it): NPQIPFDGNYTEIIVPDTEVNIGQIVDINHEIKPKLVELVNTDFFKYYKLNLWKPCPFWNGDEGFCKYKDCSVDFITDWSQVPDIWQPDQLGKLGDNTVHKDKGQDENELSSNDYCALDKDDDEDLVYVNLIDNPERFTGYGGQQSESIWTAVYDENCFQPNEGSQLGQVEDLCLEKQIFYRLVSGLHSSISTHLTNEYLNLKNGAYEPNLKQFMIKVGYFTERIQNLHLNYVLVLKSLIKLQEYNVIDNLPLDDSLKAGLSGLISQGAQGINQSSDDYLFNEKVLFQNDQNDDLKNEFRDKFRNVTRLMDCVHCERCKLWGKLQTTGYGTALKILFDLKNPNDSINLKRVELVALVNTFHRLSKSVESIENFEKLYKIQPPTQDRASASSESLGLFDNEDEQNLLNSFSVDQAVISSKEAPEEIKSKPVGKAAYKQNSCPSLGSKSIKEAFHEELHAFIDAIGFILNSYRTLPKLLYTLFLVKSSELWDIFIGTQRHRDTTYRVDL

K M PDI for Erp41 as substrate of 1 μM Ero1–Pdi1 complex, oxygen consumption assay (titration of Erp41, 10 mM GSH): 7.07 µM
kcat of oxygen consumption, 1 μM Ero1–Pdi1 complex plus 10 μM Erp41: 1.95 s⁻¹
Substance: Komagataella phaffii Erp41, full length, purified (enzyme)
